Measured values taken from paper PMC5019495.

Key:
[1] = biological target: Siz1^(167–508)-ΔN18Smt3^K19R/D68RΔGG97/98-L-E-His6 (yeast) (UniProt Q04195)
[2] = biological target: Siz1^(167–449)-ΔN18Smt3^K19RΔGG97/98-L-E-His6 (yeast) (UniProt Q04195)
Siz1^(167–508) (yeast) = Siz1^(167–508) (yeast) (UniProt Q04195)
[3] = biological target: Siz1^(167–449)-ΔN18Smt3^K19R/D68RΔGG97/98-L-E-His6 (yeast) (UniProt Q04195)
Siz1^(167–449) (yeast) = Siz1^(167–449) (yeast) (UniProt Q04195)
Sequence of Siz1^(167–449) (yeast) (Q04195 167-449): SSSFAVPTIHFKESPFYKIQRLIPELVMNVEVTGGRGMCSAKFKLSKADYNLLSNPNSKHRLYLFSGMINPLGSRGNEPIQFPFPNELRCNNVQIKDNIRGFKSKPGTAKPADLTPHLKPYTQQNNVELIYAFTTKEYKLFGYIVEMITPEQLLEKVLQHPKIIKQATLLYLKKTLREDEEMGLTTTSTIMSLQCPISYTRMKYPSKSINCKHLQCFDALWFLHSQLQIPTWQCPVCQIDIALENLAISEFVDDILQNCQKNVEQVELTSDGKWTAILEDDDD

Sequence of Siz1^(167–508) (yeast) (Q04195 167-508): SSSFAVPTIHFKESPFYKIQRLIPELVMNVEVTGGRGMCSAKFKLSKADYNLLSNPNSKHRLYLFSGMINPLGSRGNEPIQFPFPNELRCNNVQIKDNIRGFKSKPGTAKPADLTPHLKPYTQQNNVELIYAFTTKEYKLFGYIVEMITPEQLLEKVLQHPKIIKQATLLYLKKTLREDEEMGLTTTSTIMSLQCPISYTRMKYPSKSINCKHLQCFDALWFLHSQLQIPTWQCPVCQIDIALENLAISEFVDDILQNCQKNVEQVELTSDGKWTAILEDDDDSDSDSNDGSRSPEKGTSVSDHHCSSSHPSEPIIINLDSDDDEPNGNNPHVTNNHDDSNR
Sequence of Siz1^(167–449)-ΔN18Smt3^K19R/D68RΔGG97/98-L-E-His6 (yeast) (Q04195 whole entry, looked up, stated change not applied, tested part not stated): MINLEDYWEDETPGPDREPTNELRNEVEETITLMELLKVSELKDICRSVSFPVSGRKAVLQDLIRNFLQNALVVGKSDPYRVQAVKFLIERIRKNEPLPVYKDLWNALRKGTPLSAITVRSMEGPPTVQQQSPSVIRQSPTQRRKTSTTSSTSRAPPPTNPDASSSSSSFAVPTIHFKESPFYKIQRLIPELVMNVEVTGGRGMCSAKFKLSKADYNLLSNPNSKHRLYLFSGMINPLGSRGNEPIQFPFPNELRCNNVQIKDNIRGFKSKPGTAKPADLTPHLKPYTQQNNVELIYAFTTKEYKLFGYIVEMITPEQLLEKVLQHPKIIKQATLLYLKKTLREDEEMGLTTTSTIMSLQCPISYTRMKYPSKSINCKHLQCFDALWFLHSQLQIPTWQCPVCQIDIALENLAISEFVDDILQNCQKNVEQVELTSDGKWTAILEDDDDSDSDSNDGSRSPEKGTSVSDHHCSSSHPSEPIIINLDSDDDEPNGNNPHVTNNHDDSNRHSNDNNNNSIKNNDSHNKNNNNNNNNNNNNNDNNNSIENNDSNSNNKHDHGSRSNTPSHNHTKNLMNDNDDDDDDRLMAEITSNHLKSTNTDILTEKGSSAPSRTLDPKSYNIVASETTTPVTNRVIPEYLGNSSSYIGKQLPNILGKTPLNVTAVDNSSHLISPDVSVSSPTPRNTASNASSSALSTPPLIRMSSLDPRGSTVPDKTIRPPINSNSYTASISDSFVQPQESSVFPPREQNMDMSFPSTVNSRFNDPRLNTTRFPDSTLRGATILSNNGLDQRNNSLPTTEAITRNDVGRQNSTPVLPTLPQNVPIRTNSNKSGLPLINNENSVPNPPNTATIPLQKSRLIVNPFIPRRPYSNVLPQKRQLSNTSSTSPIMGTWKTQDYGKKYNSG
Sequence of Siz1^(167–508)-ΔN18Smt3^K19R/D68RΔGG97/98-L-E-His6 (yeast) (Q04195 whole entry, looked up, stated change not applied, tested part not stated): as above
Sequence of Siz1^(167–449)-ΔN18Smt3^K19RΔGG97/98-L-E-His6 (yeast) (Q04195 whole entry, looked up, stated change not applied, tested part not stated): as above

## Ubc9^K153R-Smt3^K11C/D68R-Alexa488 thioester (from UniProt P50623 1-157; Q12306 1-101) (complex)
[1]
  Km of the E2-SUMO thioester, K127 product: 2.07 µM
[2]
  Km of the E2-SUMO thioester, K127 product: 0.48 µM
Siz1^(167–508) (yeast)
  Km of the E2-SUMO thioester, K127 product, no additional SUMO: 2.34 µM
  Km of the E2-SUMO thioester, K127 product, with 1.5-fold excess Δ18Smt3ΔGGHIS: 1.15 µM
  Km of the E2-SUMO thioester, K164 product, no additional SUMO: 0.91 µM
[3]
  Km of the E2-SUMO thioester, K127 product: 4.4 µM
  Km of the E2-SUMO thioester, K164 product: 1.02 µM
Siz1^(167–449) (yeast)
  Km of the E2-SUMO thioester, K127 product, no additional SUMO: 1.23 µM
  Km of the E2-SUMO thioester, K127 product, with 1.5-fold excess Δ18Smt3ΔGGHIS: 1.84 µM
  Km of the E2-SUMO thioester, K164 product, no additional SUMO: 0.91 µM
  Km of the E2-SUMO thioester, K164 product, with 1.5-fold excess Δ18Smt3ΔGGHIS: 1.44 µM
